Literature values, collected in paper PMC4254573.

Legend:
[1] = biological target: EGFR ECD (Drosophila melanogaster) (UniProt P04412)
sEGFR ECD (Homo sapiens) = sEGFR ECD (Homo sapiens) (UniProt P00533)

Substance | Kd [1] [µM] | Kd (sEGFR ECD (Homo sapiens)) [µM]
EGFR ECD (from UniProt P04412) | 40 | –
sEGFR ECD (from UniProt P00533) | – | 1
